Assay [1] has as its target CyPet-NS1 (influenza virus) (UniProt P03496). The assay is described as follows: FRET or BRET.
A further assay deals with CyPet-Ubc9 (UniProt P63279). The assay is described as follows: FRET or BRET.
UniProt P63279, sequence (P63279 whole entry): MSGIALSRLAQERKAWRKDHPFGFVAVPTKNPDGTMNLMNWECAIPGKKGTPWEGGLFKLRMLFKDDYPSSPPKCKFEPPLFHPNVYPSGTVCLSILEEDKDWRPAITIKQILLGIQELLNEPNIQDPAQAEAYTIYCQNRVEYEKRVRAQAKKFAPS

In assay [1], “YPet-PIAS1 (from UniProt O75925 1-651) (enzyme)” displayed a Kd of 2.96 µM.

Turning to “YPet-NS1 (from UniProt P03496 1-230) (natural protein)”, the equilibrium dissociation constant (Kd) with CyPet-Ubc9 was determined as 4.84 µM.

These data come from publication doi:10.1101/2021.08.16.456439.
